Source: patent US20210347869A1 (UNIVERSITY OF QUEENSLAND, published 2021)
Each block holds one binder with its values, some of them ahead of it.

Assays:
full-length human tau [1] = biological target: T1, full-length human tau (human, UniProt P10636 2-757); assay: SPR (Biacore S200), single-cycle, biotinylated antibody captured on streptavidin chip, tau as analyte, steady state affinity fit; IgG1 format
T1 construct: also called tau441; human tau isoform 2
Method: (§1) (C) Single-cycle kinetics of AB1 to full-length human tau was determined using surface plasmon resonance. […] (D) The molecular weight (MW), binding affinity (KD) and activity for each of the AB1 antibody formats.
(§2) Surface plasmon resonance measurements were conducted at the Monash Fragment Platform, Monash University, using the Biacore S200 biosensor (GE Healthcare). Biotinylated AB1 was captured on a streptavidin-coated CM5 chip. For biotinylation, AB1 IgG1 (29.5 μM), AB1 IgG2a (32.0 μM), AB1 Fab (22.9 μM) and AB1 scFv (60.4 μM) (in 137 mM NaCl, 2.7 mM KCl, 10 mM Na2HPO4, 1.8 mM KH2PO4) was added in a 1:1 ratio with EZ-link NHS-LC-LC-biotin (Thermo Scientific) and incubated at 25° C. for 1 hr. Antibodies were separated from free-unconjugated biotin using size-exclusion chromatography on a Superdex 200 10/300 GL (GE Healthcare) or Superdex 75 10/300 Increase (GE Healthcare) equilibrated in 137 mM NaCl, 2.7 mM KCl, 12 mM Na2HPO4, 1.8 mM KH2PO4, pH 7.4. Streptavidin was immobilized on the CM5 chip using amine coupling at 37° C. […]

full-length human tau [2] = biological target: T1, full-length human tau; assay: SPR (Biacore S200), single-cycle, biotinylated antibody captured on streptavidin chip, tau as analyte, steady state affinity fit; IgG2a format
Method: as §1, §2

full-length human tau [3] = biological target: T1, full-length human tau; assay: SPR (Biacore S200), single-cycle, biotinylated Fab captured on streptavidin chip, tau as analyte, steady state affinity fit; Fab, not IgG
Method: as §1, §2

T1 sequence (P10636 other isoform, or with tags, fused parts or gaps limits assumed): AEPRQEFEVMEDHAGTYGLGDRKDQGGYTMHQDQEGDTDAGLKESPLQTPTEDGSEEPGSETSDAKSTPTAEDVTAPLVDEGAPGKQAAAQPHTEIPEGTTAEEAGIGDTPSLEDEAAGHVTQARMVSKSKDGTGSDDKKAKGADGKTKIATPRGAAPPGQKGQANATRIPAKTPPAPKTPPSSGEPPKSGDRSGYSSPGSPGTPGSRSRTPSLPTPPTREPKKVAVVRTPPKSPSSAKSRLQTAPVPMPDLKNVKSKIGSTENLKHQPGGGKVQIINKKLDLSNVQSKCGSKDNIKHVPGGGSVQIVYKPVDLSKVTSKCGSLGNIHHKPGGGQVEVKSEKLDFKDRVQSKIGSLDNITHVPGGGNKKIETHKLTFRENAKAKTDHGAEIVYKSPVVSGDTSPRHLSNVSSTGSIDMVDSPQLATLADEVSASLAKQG

Kd (full-length human tau [1]): 407 nM
B1: AB1 IgG1 (antibody, V domains shown)
VH: QVQLKQSGPGLVQPSQSLSITCTVSGFSLTSYGVHWVRQSPGKGLEWLGVIWRGGSTDYNAAFMSRLSITKDNSKSQVFFKMNSLQADDTAIYYCAKNTNHRYDGYYAMDYWGQGTSVTVS
VL: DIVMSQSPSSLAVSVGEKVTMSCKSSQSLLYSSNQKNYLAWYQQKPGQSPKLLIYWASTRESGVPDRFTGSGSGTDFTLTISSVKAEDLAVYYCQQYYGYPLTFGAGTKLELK
notes: Expressed in Expi-CHO, about 156 kDa; For SPR it was biotinylated with NHS-LC-LC-biotin and captured on streptavidin; also called full-sized murine IgG1

Kd (full-length human tau [2]): 381 nM
B2: AB1 IgG2a (antibody, V domains shown)
VH: QVQLKQSGPGLVQPSQSLSITCTVSGFSLTSYGVHWVRQSPGKGLEWLGVIWRGGSTDYNAAFMSRLSITKDNSKSQVFFKMNSLQADDTAIYYCAKNTNHRYDGYYAMDYWGQGTSVTVS
VL: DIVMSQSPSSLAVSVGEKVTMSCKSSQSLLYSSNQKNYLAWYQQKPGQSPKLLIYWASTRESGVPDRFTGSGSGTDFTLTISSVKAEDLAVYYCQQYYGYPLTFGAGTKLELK
notes: About 156 kDa; Biotinylated and captured on streptavidin for SPR; also called full-sized murine IgG2a

Kd (full-length human tau [3]): 298 nM
B3: AB1 Fab (Fab, V domains shown)
VH: QVQLKQSGPGLVQPSQSLSITCTVSGFSLTSYGVHWVRQSPGKGLEWLGVIWRGGSTDYNAAFMSRLSITKDNSKSQVFFKMNSLQADDTAIYYCAKNTNHRYDGYYAMDYWGQGTSVTVS
VL: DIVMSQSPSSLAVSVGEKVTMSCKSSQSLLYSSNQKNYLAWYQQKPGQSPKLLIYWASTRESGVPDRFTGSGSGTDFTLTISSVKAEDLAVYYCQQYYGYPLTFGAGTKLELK
notes: Biotinylated and captured on streptavidin for SPR
